The text below walks through data of article PMC4346919, “Structural Analysis of the Complex between Penta-EF-Hand ALG-2 Protein and Sec31A Peptide Reveals a Novel Target Recognition Mechanism of ALG-2” (International Journal of Molecular Sciences, 2015).

B7: biotin-labeled ALG-2 (natural protein, human, UniProt O75340 1-191, looked up)
chain: MAAYSYRPGPGAGPGPAAGAALPDQSFLWNVFQRVDKDRSGVISDTELQQALSNGTWTPFNPVTVRSIISMFDRENKAGVNFSEFTGVWKYITDWQNVFRTYDRDNSGMIDKNELKQALSGFGYRLSDQFHDILIRKFDRQGRGQIAFDDFIQGCIVLQRLTDIFRRYDTDQDGWIQVSYEQYLSMVFSIV
modifications: biotin-labeled
notes: ALG-2 (PDCD6), probe of the far-Western blots; also called bio-ALG-2

Common to all, as to test: far-Western, overlay or dot blot; purified GST-fused peptides resolved by SDS-PAGE, transferred to PVDF membranes and probed with biotin-labeled ALG-2; chemiluminescence, quantified with ImageJ
Details in all cases: both partners purified

The target in the assay “biotin-labeled ALG-2” is B7.
In assay [1] the target is T1, GST-fused Sec31A 8-residue peptide P4S (human, P4S).
T1 construct: Sec31A residues 837-844; numbers count on: the 8-residue peptide (N1 = residue 837 of Sec31A)
T1 chain: NPPSPGFI

In assay [2] the target is T2, GST-8 aa-fusion of PLSCR3 (43–50) (UniProt Q9NRY6 43-50).
T2 construct: PLSCR3 residues 43-50; also called PLSCR3 8 aa, encoding 43–50
T2 chain (looked up): PAPAPGFA

B1: GST-fused Sec31A peptide, 13 aa (839–851) (peptide, UniProt O94979 839-851, looked up)
chain: PPPGFIMHGNVNP
notes: also called Sec31A 13 aa, encoding 839–851
Take B1: the binding result with biotin-labeled ALG-2 is “binds”.

B2: GST-fused Sec31A 8-residue peptide P2A (peptide)
chain: NAPPPGFI
notes: Sec31A residues 837-844; numbers count on: the 8-residue peptide (N1 = residue 837 of Sec31A)
With B2, the binding result with biotin-labeled ALG-2 is reported as “binds”.

B3: GST-fused Sec31A 8-residue peptide P5A (peptide)
chain: NPPPAGFI
notes: as for B2
B3: the binding result with biotin-labeled ALG-2 was “binds”.

B4: GST-fused Sec31A 8-residue peptide P5L (peptide)
chain: NPPPLGFI
notes: as for B2
With B4, the binding result in the assay with biotin-labeled ALG-2 was “binds”.

B5: GST-fused Sec31A 8-residue peptide P4A (peptide)
chain: NPPAPGFI
notes: as for B2
In the case of B5, the binding result with biotin-labeled ALG-2 is recorded as “binds”.

B6: GST-fused Sec31A peptide, 13 aa (837–849) (peptide, UniProt O94979 837-849, looked up)
chain: NPPPPGFIMHGNV
notes: Sec31A residues 837-849; also called Sec31A 13 aa, encoding 837–849
Take B6: the binding result with biotin-labeled ALG-2 is “binds”.

For the molecule B7, in assay [1], the “relative binding activity (percent of WT)” value was ~20 % of WT. Moreover, the “FW signal relative to that for Sec31A” value in assay [2] was < 0.0625 of the signal for Sec31A.
